Where “and” joins values, the source holds several entries; their conditions need not be identical. Equal values may be shown once.

This experiment deals with Fz-CRD (biotinylated Fz5- and Fz8-CRD). The experiment can be described thus: SPR, biotinylated Fz5- and Fz8-CRD on the chip, mini-Xwnt8 flowed over at several concentrations.

With “mini-XWnt8 (amino acid residues 248-338) (from UniProt P28026) (ligand)”, the Kd is 1 µM and 2 µM.
